Results published in IntAct's records for PubMed 31474574.

B1: Splicing factor 3B subunit 1 (Homo sapiens), O75533 (parent)
chain: MAKIAKTHEDIEAQIREIQGKKAALDEAQGVGLDSTGYYDQEIYGGSDSRFAGYVTSIAATELEDDDDDYSSSTSLLGQKKPGYHAPVALLNDIPQSTEQYDPFAEHRPPKIADREDEYKKHRRTMIISPERLDPFADGGKTPDPKMNARTYMDVMREQHLTKEEREIRQQLAEKAKAGELKVVNGAAASQPPSKRKRRWDQTADQTPGATPKKLSSWDQAETPGHTPSLRWDETPGRAKGSETPGATPGSKIWDPTPSHTPAGAATPGRGDTPGHATPGHGGATSSARKNRWDETPKTERDTPGHGSGWAETPRTDRGGDSIGETPTPGASKRKSRWDETPASQMGGSTPVLTPGKTPIGTPAMNMATPTPGHIMSMTPEQLQAWRWEREIDERNRPLSDEELDAMFPEGYKVLPPPAGYVPIRTPARKLTATPTPLGGMTGFHMQTEDRTMKSVNDQPSGNLPFLKPDDIQYFDKLLVDVDESTLSPEEQKERKIMKLLLKIKNGTPPMRKAALRQITDKAREFGAGPLFNQILPLLMSPTLEDQERHLLVKVIDRILYKLDDLVRPYVHKILVVIEPLLIDEDYYARVEGREIISNLAKAAGLATMISTMRPDIDNMDEYVRNTTARAFAVVASALGIPSLLPFLKAVCKSKKSWQARHTGIKIVQQIAILMGCAILPHLRSLVEIIEHGLVDEQQKVRTISALAIAALAEAATPYGIESFDSVLKPLWKGIRQHRGKGLAAFLKAIGYLIPLMDAEYANYYTREVMLILIREFQSPDEEMKKIVLKVVKQCCGTDGVEANYIKTEILPPFFKHFWQHRMALDRRNYRQLVDTTVELANKVGAAEIISRIVDDLKDEAEQYRKMVMETIEKIMGNLGAADIDHKLEEQLIDGILYAFQEQTTEDSVMLNGFGTVVNALGKRVKPYLPQICGTVLWRLNNKSAKVRQQAADLISRTAVVMKTCQEEKLMGHLGVVLYEYLGEEYPEVLGSILGALKAIVNVIGMHKMTPPIKDLLPRLTPILKNRHEKVQENCIDLVGRIADRGAEYVSAREWMRICFELLELLKAHKKAIRRATVNTFGYIAKAIGPHDVLATLLNNLKVQERQNRVCTTVAIAIVAETCSPFTVLPALMNEYRVPELNVQNGVLKSLSFLFEYIGEMGKDYIYAVTPLLEDALMDRDLVHRQTASAVVQHMSLGVYGFGCEDSLNHLLNYVWPNVFETSPHVIQAVMGALEGLRVAIGPCRMLQYCLQGLFHPARKVRDVYWKIYNSIYIGSQDALIAHYPRIYNDDKNTYIRYELDYIL
partner: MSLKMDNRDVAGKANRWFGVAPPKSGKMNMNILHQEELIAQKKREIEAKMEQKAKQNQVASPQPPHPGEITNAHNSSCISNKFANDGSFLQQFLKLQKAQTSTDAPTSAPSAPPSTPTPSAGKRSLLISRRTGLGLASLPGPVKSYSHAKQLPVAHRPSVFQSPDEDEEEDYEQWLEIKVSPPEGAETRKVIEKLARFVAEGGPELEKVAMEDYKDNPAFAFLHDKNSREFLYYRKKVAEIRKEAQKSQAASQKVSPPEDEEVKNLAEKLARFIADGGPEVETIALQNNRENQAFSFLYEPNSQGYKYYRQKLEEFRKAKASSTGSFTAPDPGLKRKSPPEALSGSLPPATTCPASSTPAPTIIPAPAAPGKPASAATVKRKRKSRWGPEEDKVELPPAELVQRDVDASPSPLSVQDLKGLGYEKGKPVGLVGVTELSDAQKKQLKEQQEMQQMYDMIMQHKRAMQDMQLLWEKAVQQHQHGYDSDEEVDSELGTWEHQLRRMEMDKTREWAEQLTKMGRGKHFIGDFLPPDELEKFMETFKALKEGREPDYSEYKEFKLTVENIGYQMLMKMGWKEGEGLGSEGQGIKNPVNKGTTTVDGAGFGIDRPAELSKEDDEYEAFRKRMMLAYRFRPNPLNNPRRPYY
B2: SURP and G-patch domain-containing protein 1 (Homo sapiens), Q8IWZ8 (parent)
chain: B1 partner

Variants of: B1
Settings: with sugp1_human SUGP1, Q8IWZ8
With H662Q the “effect of a mutation on the interaction” value was “disrupting interaction strength”. In the case of K700E, the “effect of a mutation on the interaction” value is reported as “disrupting interaction strength”. In the case of E622D, the “effect of a mutation on the interaction” value is reported as “disrupting interaction strength”. For K666N, the “effect of a mutation on the interaction” value was “decreasing interaction strength”. With R625C the “effect of a mutation on the interaction” value was “disrupting interaction strength”.

Variants of: B1
Settings: with sugp1_human SUGP1, Q8IWZ8
Remark: another data set of the same source
In the case of K700E, the “effect of a mutation on the interaction” value is reported as “decreasing interaction strength”.

Variants of: B2
Settings: with U2AF2, P26368
Sequence of U2AF2, P26368 (P26368 whole entry): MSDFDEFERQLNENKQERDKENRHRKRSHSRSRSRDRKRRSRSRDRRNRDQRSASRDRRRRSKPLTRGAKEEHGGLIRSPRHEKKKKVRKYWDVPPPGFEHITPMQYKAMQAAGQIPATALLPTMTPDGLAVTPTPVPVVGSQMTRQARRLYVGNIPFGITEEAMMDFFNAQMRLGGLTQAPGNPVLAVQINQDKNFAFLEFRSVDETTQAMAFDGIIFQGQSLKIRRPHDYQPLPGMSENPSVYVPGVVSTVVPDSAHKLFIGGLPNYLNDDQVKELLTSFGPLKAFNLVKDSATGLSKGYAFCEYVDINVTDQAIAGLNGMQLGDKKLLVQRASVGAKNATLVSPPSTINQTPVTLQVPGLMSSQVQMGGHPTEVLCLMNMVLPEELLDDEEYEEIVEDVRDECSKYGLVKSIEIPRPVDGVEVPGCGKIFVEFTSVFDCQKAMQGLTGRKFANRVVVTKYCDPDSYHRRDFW
W387A was tested, and the “effect of a mutation on the interaction” value was “disrupting interaction strength”.
